Biological target: T1, His-EGR1 (mouse, UniProt P08046 1-533)
T1 construct: Early growth response protein 1 (EGR1), mouse; plasmid pET28a-EGR1; also called His-tagged EGR1; source: E. coli BL21(DE3), purified (Ni-NTA)
Assay: pull-down; GST pull-down with affinity purified proteins; GST bait on GSH magnetic beads (BersinBio GST-pull down kit), His-EGR1 as prey; SDS-PAGE or Western blot
Conditions: both partners purified

T1 sequence (P08046 whole entry): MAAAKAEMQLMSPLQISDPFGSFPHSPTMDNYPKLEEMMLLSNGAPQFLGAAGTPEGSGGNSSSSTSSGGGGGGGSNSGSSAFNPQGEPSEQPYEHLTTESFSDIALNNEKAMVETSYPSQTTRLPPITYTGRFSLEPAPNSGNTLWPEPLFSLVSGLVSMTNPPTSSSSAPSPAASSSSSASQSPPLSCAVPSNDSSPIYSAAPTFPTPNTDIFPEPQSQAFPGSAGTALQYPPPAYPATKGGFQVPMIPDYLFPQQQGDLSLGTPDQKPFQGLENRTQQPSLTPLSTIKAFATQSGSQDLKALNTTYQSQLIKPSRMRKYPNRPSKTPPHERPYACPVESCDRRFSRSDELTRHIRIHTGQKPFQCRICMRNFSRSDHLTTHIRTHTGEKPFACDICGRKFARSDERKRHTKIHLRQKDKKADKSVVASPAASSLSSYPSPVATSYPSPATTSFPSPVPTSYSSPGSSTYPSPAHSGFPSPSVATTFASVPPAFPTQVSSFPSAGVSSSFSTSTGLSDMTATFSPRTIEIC

B1: GST-KAT2B-WT (enzyme, mouse, UniProt Q9JHD1 1-813, looked up)
chain: MAEAGGAGSPALPPAPPHGSPRTLATAAGSSASCGPATAVAAAGTAEGPGGGGSARIAVKKAQLRSAPRAKKLEKLGVYSACKAEESCKCNGWKNPNPSPTPPRGDLQQIIVSLTESCRSCSHALAAHVSHLENVSEEEMDRLLGIVLDVEYLFTCVHKEEDADTKQVYFYLFKLLRKSILQRGKPVVEGSLEKKPPFEKPSIEQGVNNFVQYKFSHLPSKERQTTIELAKMFLNRINYWHLEAPSQRRLRSPNDDISGYKENYTRWLCYCNVPQFCDSLPRYETTKVFGRTLLRSVFTIMRRQLLEQARQEKDKLPLEKRTLILTHFPKFLSMLEEEVYSQNSPIWDQDFLSASSRTSPLGIQTVISPPVTGTALFSSNSTSHEQINGGRTSPGCRGSSGLEANPGEKRKMNNSHAPEEAKRSRVMGDIPVELINEVMSTITDPAGMLGPETNFLSAHSARDEAARLEERRGVIEFHVVGNSLNQKPNKKILMWLVGLQNVFSHQLPRMPKEYITRLVFDPKHKTLALIKDGRVIGGICFRMFPSQGFTEIVFCAVTSNEQVKGYGTHLMNHLKEYHIKHEILNFLTYADEYAIGYFKKQGFSKEIKIPKTKYVGYIKDYEGATLMGCELNPQIPYTEFSVIIKKQKEIIKKLIERKQAQIRKVYPGLSCFKDGVRQIPIESIPGIRETGWKPSGKEKSKEPKDPEQLYSTLKNILQQVKNHPNAWPFMEPVKRTEAPGYYEVIRFPMDLKTMSERLRNRYYVSKKLFMADLQRVFTNCKEYNPPESEYYKCASILEKFFFSKIKEAGLIDK
notes: Histone acetyltransferase KAT2B, mouse; plasmid pGEX-4T-1-KAT2B; source: E. coli BL21(DE3), purified (glutathione column)
binding result: binds

— PMC11831459, “Lactylation of Histone H3k18 and Egr1 Promotes Endothelial Glycocalyx Degradation in Sepsis‐Induced Acute Lung Injury” (Advanced Science, 2024)
